1 molecule from patent US20040096898A1 (MCMASTER UNIVERSITY, published 2004) can be followed below.

The test addresses T1, PMCA398 (WVQKRPWLAESTPIYIQYFVKC) (conjugated through the terminus cysteine to keyhole limpet hemocyanin or ovalbumin).
T1 construct: Used as the KHLH conjugate (coated), as the free peptide (coated) and as the ovalbumin conjugate (eluting)
T1 peptide: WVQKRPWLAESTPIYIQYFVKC
In words: phage display panning on coated peptide conjugate. The text has this:
The peptide fragment from the PMCA protein is preferably from an extracellular domain of the PMCA protein. […] The inventors screened an MEK13 random peptide phage display library (New England Biolabs, USA) and identified a phage that bound to the PMCA398-keyhole limpet hemocyanin conjugate and eluted with the PMCA398-ovalbumin. Specific details on the screening assay are provided in Example 1. A peptide containing the 12 amino add recognition sequence and a spacer ([…]-amide, SEQ.ID.NO.1) was synthesized and subsequently termed caloxin 2A1.
1.4.4. Screening Procedure for PMCA398: The peptide PMCA398 is extremely hydrophobic. Therefore, it was conjugated at a lower (5:1 molar) ratio to KHLH and ovalbumin. The peptide and its conjugates could be used only at low concentrations as very fine suspensions. […] Therefore, a strategy of sequentially increasing selectivity was used. First three rounds of panning were conducted at low stringency. […] The selected phage were pooled. […] After three high stringency washes, a differential time elution was performed—at each time point replacing the elutant with new PBS. The idea was that the most tightly bound phage would elute last. The elution was at room temperature for 1, 2, 4, 8, 16 and then 120 min. The phage from 16 and 120 min elutants gave excellent results in selectivity assays. […]

Ends that are not written are not given here.

B1: phage displaying the 12 amino acid peptide VSNSNWPSFPSS (peptide)
peptide: VSNSNWPSFPSS
modifications: also: displayed as a fusion on M13KE phage
notes: also called phage from 16 and 120 min elutants; consensus clone of the PMCA398 screen; not shown: rest of the M13KE phage display fusion (PhD12 library); not described
As to B1, the binding result is “binds”.
